Results: patent US20220259330A1 (SUNSHINE GUOJIAN PHARMACEUTICAL SHANGHAI, published 2022)
Several values for one entry are separate records, joined by “and”; a condition that tells them apart may be missing. Equal values may be shown once.

What was measured:
[1] = target: T1, TGF-β1 (Sino Biological, Cat. No. 10804-HNAC) (UniProt P01137 279-390); test: ELISA, plate coated with TGF-β1
[2] = target: T2, PD1-His (human, UniProt Q15116 25-170); test: ELISA, plate coated with PD1-His
T2 construct: extracellular domain; In-house protein; also called extracellular domain protein of human PD-1 with a 6*His tag
T2 sequence (Q15116 other isoform, or with tags, fused parts or gaps): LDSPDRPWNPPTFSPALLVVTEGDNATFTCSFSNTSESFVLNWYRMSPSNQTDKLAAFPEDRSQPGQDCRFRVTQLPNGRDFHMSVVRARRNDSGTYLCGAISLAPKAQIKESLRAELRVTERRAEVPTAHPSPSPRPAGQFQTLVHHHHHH

[3] = target: T3, biotinylated human PD-1 extracellular recombinant protein (Sino Biological, Cat. No. 10377-H08H-B) (human, UniProt Q15116 25-170, biotinylated); test: bridging ELISA: plate coated with TGF-β1, antibody titrated, detected with biotinylated human PD-1 ECD and Streptavidin-HRP; antibody first captured on plate-coated TGF-β1
T3 construct: extracellular domain; Bought; detection reagent in the bridging ELISAs
T3 sequence (Q15116 25-170): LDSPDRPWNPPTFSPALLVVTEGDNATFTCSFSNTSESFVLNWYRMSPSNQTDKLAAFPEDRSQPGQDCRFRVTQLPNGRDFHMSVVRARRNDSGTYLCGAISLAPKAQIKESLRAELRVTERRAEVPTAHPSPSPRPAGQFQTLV

[4] = target: T4, LAG3-ECD-His (human, UniProt P18627 23-450); test: ELISA, plate coated with LAG3-ECD-His
T4 construct: extracellular domain; Bought; not shown: polyhistidine tag
T4 sequence (looked up): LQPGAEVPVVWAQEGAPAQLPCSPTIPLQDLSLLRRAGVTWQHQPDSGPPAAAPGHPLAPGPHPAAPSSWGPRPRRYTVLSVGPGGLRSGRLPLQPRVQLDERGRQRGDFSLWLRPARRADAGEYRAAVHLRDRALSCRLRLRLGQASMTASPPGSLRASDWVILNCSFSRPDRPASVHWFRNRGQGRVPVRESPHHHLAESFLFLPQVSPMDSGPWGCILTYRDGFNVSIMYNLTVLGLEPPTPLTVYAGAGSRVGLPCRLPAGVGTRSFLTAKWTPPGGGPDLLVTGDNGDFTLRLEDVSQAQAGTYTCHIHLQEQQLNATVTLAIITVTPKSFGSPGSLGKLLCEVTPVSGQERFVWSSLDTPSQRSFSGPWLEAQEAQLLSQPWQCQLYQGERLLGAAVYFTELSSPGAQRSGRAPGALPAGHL

[5] = target: T4, LAG3-ECD-His; test: ELISA, LAG3-ECD-His coated
[6] = target: T1, TGF-β1 (Sino Biological, Cat. No. …); test: bridging ELISA: TGF-β1 coated, antibody titrated, biotinylated human PD-1 and streptavidin-HRP for detection
[7] = target: T3, biotinylated human PD-1 extracellular …; test: as above

T1 sequence (P01137 279-390 limits assumed): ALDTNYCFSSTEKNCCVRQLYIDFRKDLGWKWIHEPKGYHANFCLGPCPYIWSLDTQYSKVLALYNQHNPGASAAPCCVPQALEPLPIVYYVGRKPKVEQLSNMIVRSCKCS

B1: 14-Fab-127-IgG4 (bispecific antibody)
heavy: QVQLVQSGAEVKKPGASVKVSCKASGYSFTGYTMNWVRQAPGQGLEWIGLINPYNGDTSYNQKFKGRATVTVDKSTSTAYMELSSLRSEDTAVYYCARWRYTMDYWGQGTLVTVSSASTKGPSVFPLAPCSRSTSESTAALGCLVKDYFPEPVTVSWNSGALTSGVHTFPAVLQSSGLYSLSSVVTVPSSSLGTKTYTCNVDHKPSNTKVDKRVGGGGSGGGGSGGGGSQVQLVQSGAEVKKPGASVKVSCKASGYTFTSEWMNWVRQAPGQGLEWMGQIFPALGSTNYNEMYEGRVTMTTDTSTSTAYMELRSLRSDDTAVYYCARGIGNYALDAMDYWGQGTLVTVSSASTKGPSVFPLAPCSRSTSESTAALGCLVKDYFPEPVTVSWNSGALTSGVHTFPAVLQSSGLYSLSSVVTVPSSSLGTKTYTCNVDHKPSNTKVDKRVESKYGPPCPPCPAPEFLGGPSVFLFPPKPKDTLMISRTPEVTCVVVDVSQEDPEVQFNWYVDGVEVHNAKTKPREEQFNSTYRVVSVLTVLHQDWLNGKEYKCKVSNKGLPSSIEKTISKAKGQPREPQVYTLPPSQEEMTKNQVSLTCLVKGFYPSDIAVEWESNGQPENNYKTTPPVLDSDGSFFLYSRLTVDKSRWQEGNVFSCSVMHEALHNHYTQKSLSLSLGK
light: DIVLTQSPASLAVSPGQRATITCRASESVDNYGNSFMNWYQQKPGQPPKPLIYFASNLESGVPARFSGSGSRTDFTLTINPVEADDTANYYCQQNNEAPPTFGQGTKVEIKRTVAAPSVFIFPPSDEQLKSGTASVVCLLNNFYPREAKVQWKVDNALQSGNSQESVTEQDSKDSTYSLSSTLTLSKADYEKHKVYACEVTHQGLSSPVTKSFNRGEC
- EC50 [1]: 0.152 nM
- EC50 [2]: 0.387 nM
- EC50 [3]: 0.278 nM

B2: 5E7-Hu (antibody, human IgG4 S228P, kappa, V domains shown)
VH: EVQLVESGGGLVKPGGSLRLSCAASGFTFSDDYMAWFRQAPGKRLEWVASISHGGDYIYYADNLKGRFTISRDNAKNSLYLQMNSLRAEDTAVYFCSRDRRSIDYWGQGTLVTVSS
VL: DIQMTQSPSSLSASVGDRVTITCRASQDISNYLSWYQQKPGKTIKLLIYYTSRLHSGVPSRFSGSGSGTDYTFTISSLQPEDIATYFCQQGKTLPYTFGQGTKVEIKR
notes: Humanized anti-human LAG-3, IgG4 (S228P), kappa; also called 5E7-Hu-HC+5E7-Hu-LC
- EC50 [4]: 0.147 nM
- EC50 (read off the curve) [5]: ~0.1 nM

B3: 14-Hu (antibody, human IgG4 S228P, kappa, V domains shown)
VH: QVQLVQSGAEVKKPGASVKVSCKASGYSFTGYTMNWVRQAPGQGLEWIGLINPYNGDTSYNQKFKGRATVTVDKSTSTAYMELSSLRSEDTAVYYCARWRYTMDYWGQGTLVTVSS
VL: DIVLTQSPASLAVSPGQRATITCRASESVDNYGNSFMNWYQQKPGQPPKPLIYFASNLESGVPARFSGSGSRTDFTLTINPVEADDTANYYCQQNNEAPPTFGQGTKVEIKR
notes: Humanized anti-PD-1, IgG4 (S228P), kappa; also called 14-Hu-HC+14-Hu-LC
- binding result [6]: no binding
- EC50 [2]: 0.392 nM and 0.432 nM

B4: mAb127-HC+14-Hu-LC (antibody, human IgG4 S228P, kappa, V domains shown)
VH: QVQLVQSGAEVKKPGASVKVSCKASGYTFTSEWMNWVRQAPGQGLEWMGQIFPALGSTNYNEMYEGRVTMTTDTSTSTAYMELRSLRSDDTAVYYCARGIGNYALDAMDYWGQGTLVTVSS
VL: B3 VL
notes: Hybrid antibody
- EC50 [1]: 0.0711 nM and 0.0803 nM
- binding result [7]: no binding
